Here are results for 40 substances from US11597752B2, “Peptides and combination of peptides and scaffolds thereof for use in immunotherapy against colorectal carcinoma (CRC) and other cancers” (priority 2015, dated 2023).

Assay [1] has as its system CD8+ T-cells of healthy HLA-A*02 donors. Kind of assay: In vitro immunogenicity: T-cell priming with aAPCs loaded with peptide/MHC and anti-CD28, multimer staining. It is filed as cell-based, human. The settings on record: for Wells positive [%]: HLA-A*02 restricted peptides, among evaluable wells, Table 10B; for donors: percentage of positive donors; for donors / wells: in vitro immunogenicity, Table 10A; for wells: percentage of positive wells. From the text: In order to obtain information regarding the immunogenicity of the TUMAPs of the present invention, the inventors performed investigations using an in vitro T-cell priming assay based on repeated stimulations of CD8+ T-cells with artificial antigen presenting cells (aAPCs) loaded with peptide/MHC complexes and anti-CD28 antibody.
In order to perform in vitro stimulations by artificial antigen presenting cells loaded with peptide-MHC complex (pMHC) and anti-CD28 antibody, the inventors first isolated CD8+ T-cells from fresh HLA-A*02 leukapheresis products via positive selection using CD8 microbeads (Miltenyi Biotec, Bergisch-Gladbach, Germany) of healthy donors obtained from the University clinics Mannheim, Germany, after informed consent.
PBMCs and isolated CD8+ lymphocytes were incubated in T-cell medium (TCM) until use consisting of RPMI-Glutamax (Invitrogen, Karlsruhe, Germany) supplemented with 10% heat inactivated human AB serum (PAN-Biotech, Aidenbach, Germany), 100 U/ml Penicillin/100 μg/ml Streptomycin (Cambrex, Cologne, Germany), 1 mM sodium pyruvate (CC Pro, Oberdorla, Germany), 20 μg/ml Gentamycin (Cambrex). 2.5 ng/ml IL-7 (PromoCell, Heidelberg, Germany) and 10 U/ml IL-2 (Novartis Pharma, Nürnberg, Germany) were also added to the TCM at this step.
Generation of pMHC/anti-CD28 coated beads, T-cell stimulations and readout was performed in a highly defined in vitro system using four different pMHC molecules per stimulation condition and 8 different pMHC molecules per readout condition.
The purified co-stimulatory mouse IgG2a anti human CD28 Ab 9.3 (Jung et al., 1987) was chemically biotinylated using Sulfo-N-hydroxysuccinimidobiotin as recommended by the manufacturer (Perbio, Bonn, Germany). Beads used were 5.6 μm diameter streptavidin coated polystyrene particles (Bangs Laboratories, Illinois, USA).
800.000 beads/200 μl were coated in 96-well plates in the presence of 4×12.5 ng different biotin-pMHC, washed and 600 ng biotin anti-CD28 were added subsequently in a volume of 200 μl. Stimulations were initiated in 96-well plates by co-incubating 1×10^6 CD8+ T-cells with 2×10^6 washed coated beads in 200 μl TCM supplemented with 5 ng/ml IL-12 (PromoCell) for 3 days at 37° C. Half of the medium was then exchanged by fresh TCM supplemented with 80 U/ml IL-2 and incubating was continued for 4 days at 37° C. This stimulation cycle was performed for a total of three times. For the pMHC multimer readout using 8 different pMHC molecules per condition, a two-dimensional combinatorial coding approach was used as previously described (Andersen et al., 2012) with minor modifications encompassing coupling to 5 different fluorochromes. Finally, multimeric analyses were performed by staining the cells with Live/dead near IR dye (Invitrogen, Karlsruhe, Germany), CD8-FITC antibody clone SK1 (BD, Heidelberg, Germany) and fluorescent pMHC multimers. For analysis, a BD LSRII SORP cytometer equipped with appropriate lasers and filters was used. Peptide specific cells were calculated as percentage of total CD8+ cells. Evaluation of multimeric analysis was done using the FlowJo software (Tree Star, Oregon, USA). In vitro priming of specific multimer+CD8+ lymphocytes was detected by comparing to negative control stimulations.

Another assay deals with HLA-A*02:01 (Homo sapiens, UniProt P04439, D140Y/D185E/D98H/E176V/E277Q/G131W/G231S/I119V/I121R/I166T/I218V/L300P/L318F/N151K/N90K/P208A/P217A/Q86G/Q94H/R138H/R169H/T345S). Kind of assay: MHC binding assay (UV-ligand exchange, beta2m ELISA, peptide exchange yield). The settings on record: binding to HLA-A*02:01, β2m ELISA. The procedure, abridged: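 Exchange yield, UV-ligand exchange: 100-fold diluted samples on streptavidin plates, 1 h at 37 °C; HRP anti-β2m 1 h at 37 °C; TMB read at 450 nm.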

As for “1 (ALIKQLFEA; listed as Homo sapiens) [compound 1]”, in assay [1], the “Wells positive [%]” value is given as ““+” (<20% = +)”. Also, in the assay with HLA-A*02:01, the “Peptide exchange (MHC class I binding score, peptide exchange yield)” value (“Peptide exchange” below) is recorded as ““+++” (≥50 = +++)”.

Turning to “2 (ALLPRYFFL; listed as Homo sapiens) [compound 2]”, the “Wells positive [%]” value in assay [1] was ““++++” (>=70% = ++++)”. For the same substance, the “Peptide exchange” value with HLA-A*02:01 is reported as ““++” (≥20% = ++)”.

As to “7 (YLTRHLAVL; listed as Homo sapiens) [compound 7]”, the “Wells positive [%]” value in assay [1] is given as ““+” (<20% = +)”. For the same substance, the “Peptide exchange” value in the assay with HLA-A*02:01 is ““++” (≥20% = ++)”.

On to “9 (ILDDHLSRV; listed as Homo sapiens) [compound 9]”, for which the “Wells positive [%]” value in assay [1] is ““+” (<20% = +)”. Also, the “Peptide exchange” value with HLA-A*02:01 is ““++” (≥20% = ++)”.

Turning to “10 (RMYNKIFAI; listed as Homo sapiens) [compound 10]”, in assay [1], the “Wells positive [%]” value is ““++++” (>=70% = ++++)”. Moreover, the “Peptide exchange” value with HLA-A*02:01 was ““+++” (≥50 = +++)”.

Regarding “11 (YLFEKTFNM; listed as Homo sapiens) [compound 11]”, the “Wells positive [%]” value in assay [1] is ““+” (<20% = +)”. For the same substance, the “Peptide exchange” value with HLA-A*02:01 is on record as ““+++” (≥50 = +++)”.

For the substance “12 (ALVQGILERV; listed as Homo sapiens) [compound 12]”, in assay [1], the “Wells positive [%]” value is ““++++” (>=70% = ++++)”. For the same substance, the “Peptide exchange” value with HLA-A*02:01 is given as ““+++” (≥50 = +++)”.

For the substance “18 (FLSSLKGGLL; listed as Homo sapiens) [compound 18]”, in assay [1], the “Wells positive [%]” value is reported as ““+” (<20% = +)”. In addition, in the assay with HLA-A*02:01, the “Peptide exchange” value is on record as ““+++” (≥50 = +++)”.

Regarding “21 (VLIDHRWVL; listed as Homo sapiens) [compound 21]”, the “Wells positive [%]” value in assay [1] is on record as ““+” (<20% = +)”. The “Peptide exchange” value with HLA-A*02:01 is on record as ““+++” (≥50 = +++)”.

Regarding “37 (GLFAGLGGAGA; listed as Homo sapiens) [compound 37]”, the “Wells positive [%]” value in assay [1] is given as ““+” (<20% = +)”. The “Peptide exchange” value with HLA-A*02:01 is listed as ““+++” (≥50 = +++)”.

On to “38 (SLAPTPVSA; listed as Homo sapiens) [compound 38]”, for which the “Wells positive [%]” value in assay [1] is given as ““+” (<20% = +)”. The “Peptide exchange” value in the assay with HLA-A*02:01 is ““++” (≥20% = ++)”.

In the case of “42 (SILDDSFKL; listed as Homo sapiens) [compound 42]”, the “Wells positive [%]” value in assay [1] was ““+” (<20% = +)”. The “Peptide exchange” value with HLA-A*02:01 is recorded as ““++++” (≥75% = ++++)”.

As for “47 (KLYERCEVV; listed as Homo sapiens) [compound 47]”, the “Wells positive [%]” value in assay [1] is on record as ““+” (<20% = +)”. In the assay with HLA-A*02:01, the “Peptide exchange” value is listed as ““++” (≥20% = ++)”.

For the substance “59 (LLTDNVVKL; listed as Homo sapiens) [compound 59]”, the “Wells positive [%]” value in assay [1] is listed as ““+” (<20% = +)”. Besides, the “Peptide exchange” value with HLA-A*02:01 is on record as ““+++” (≥50 = +++)”.

Regarding “64 (KTLGKLWRL; listed as Homo sapiens) [compound 64]”, in assay [1], the “Wells positive [%]” value is ““++++” (>=70% = ++++)”. Also, the “Peptide exchange” value with HLA-A*02:01 is ““++” (≥20% = ++)”.

Regarding “168 (GLIRFPLMTI; listed as Homo sapiens) [compound 168]”, in the assay with HLA-A*02:01, the “Peptide exchange” value is ““+++” (≥50 = +++)”.

Turning to “169 (YLAHFIEGL; listed as Homo sapiens) [compound 169]”, the “Peptide exchange” value with HLA-A*02:01 is listed as ““+++” (≥50 = +++)”.

“170 (ALAGGITMV; listed as Homo sapiens) [compound 170]”: the “Peptide exchange” value with HLA-A*02:01 is listed as ““+++” (≥50 = +++)”.

In the case of “171 (RLQETEGMVAV; listed as Homo sapiens) [compound 171]”, the “Peptide exchange” value in the assay with HLA-A*02:01 is given as ““++” (≥20% = ++)”.

Consider “172 (LLLDTVTMQV; listed as Homo sapiens) [compound 172]”, for which the “Peptide exchange” value with HLA-A*02:01 is on record as ““+++” (≥50 = +++)”.

“173 (KLGDLMVLL; listed as Homo sapiens) [compound 173]”: in the assay with HLA-A*02:01, the “Peptide exchange” value is given as ““+++” (≥50 = +++)”.

For the substance “174 (ILLDDNMQIRL; listed as Homo sapiens) [compound 174]”, the “Peptide exchange” value in the assay with HLA-A*02:01 is reported as ““++++” (≥75% = ++++)”.

For the substance “175 (TLLGGKEAQALGV; listed as Homo sapiens) [compound 175]”, in the assay with HLA-A*02:01, the “Peptide exchange” value is ““+++” (≥50 = +++)”.

Regarding “176 (RTLDKVLEV; listed as Homo sapiens) [compound 176]”, the “Peptide exchange” value with HLA-A*02:01 was ““++” (≥20% = ++)”.

For “177 (ALLQGAIESV; listed as Homo sapiens) [compound 177]”, the “Peptide exchange” value with HLA-A*02:01 was ““+++” (≥50 = +++)”.

Consider “178 (YLFREPATI; listed as Homo sapiens) [compound 178]”, for which the “Peptide exchange” value with HLA-A*02:01 is ““++” (≥20% = ++)”.

Take “179 (RLLSPLSSA; listed as Homo sapiens) [compound 179]”: in the assay with HLA-A*02:01, the “Peptide exchange” value is ““+++” (≥50 = +++)”.

In the case of “181 (NLFDLGGQYLRV; listed as Homo sapiens) [compound 181]”, in the assay with HLA-A*02:01, the “Peptide exchange” value is ““+++” (≥50 = +++)”.

As to “182 (SLNKWIFTV; listed as Homo sapiens) [compound 182]”, the “Peptide exchange” value in the assay with HLA-A*02:01 was ““++++” (≥75% = ++++)”.

Regarding “183 (TLQEVVTGV; listed as Homo sapiens) [compound 183]”, the “Peptide exchange” value with HLA-A*02:01 is given as ““+++” (≥50 = +++)”.

On to “184 (SLLDENNVSSYL; listed as Homo sapiens) [compound 184]”, for which the “Peptide exchange” value with HLA-A*02:01 is ““+++” (≥50 = +++)”.

“185 (VLYTGVVRV; listed as Homo sapiens) [compound 185]”: the “Peptide exchange” value with HLA-A*02:01 is ““+++” (≥50 = +++)”.

As to “186 (KMSEKILLL; listed as Homo sapiens) [compound 186]”, the “Peptide exchange” value in the assay with HLA-A*02:01 was ““+++” (≥50 = +++)”.

Regarding “187 (GLHNVVYGI; listed as Homo sapiens) [compound 187]”, in the assay with HLA-A*02:01, the “Peptide exchange” value is recorded as ““+++” (≥50 = +++)”.

In the case of “188 (FLVDGPRVQL; listed as Homo sapiens) [compound 188]”, the “Peptide exchange” value with HLA-A*02:01 is ““+++” (≥50 = +++)”.

As to “189 (AISEVIGKITA; listed as Homo sapiens) [compound 189]”, the “Peptide exchange” value with HLA-A*02:01 is ““+++” (≥50 = +++)”.

With “190 (AMAEMVLQV; listed as Homo sapiens) [compound 190]”, in the assay with HLA-A*02:01, the “Peptide exchange” value was ““+++” (≥50 = +++)”.

For the substance “191 (QLFSEIHNL; listed as Homo sapiens) [compound 191]”, the “Peptide exchange” value with HLA-A*02:01 is given as ““++++” (≥75% = ++++)”.

As to “219 (FLDEKGRCV; listed as Homo sapiens) [compound 219]”, in assay [1], the donors result was “+++ (50%-69% = +++)” and the wells result is reported as “++ (20%-49% = ++)”.

Take “220 (KMDPVAYRV; listed as Homo sapiens) [compound 220]”: in assay [1], the donors result is listed as “++++ (>=70% = ++++)” and the wells entry is on record as “+++ (50%-69% = +++)”.
